{"source": "paper PMC6800521", "about": "(RNA, 2019)", "molecular_target": "MBP-Noc1/Noc2 complex (yeast, UniProt Q12176 1-1025; P39744 1-710)", "sequence (Q12176 whole entry, chain 1 of 2)": "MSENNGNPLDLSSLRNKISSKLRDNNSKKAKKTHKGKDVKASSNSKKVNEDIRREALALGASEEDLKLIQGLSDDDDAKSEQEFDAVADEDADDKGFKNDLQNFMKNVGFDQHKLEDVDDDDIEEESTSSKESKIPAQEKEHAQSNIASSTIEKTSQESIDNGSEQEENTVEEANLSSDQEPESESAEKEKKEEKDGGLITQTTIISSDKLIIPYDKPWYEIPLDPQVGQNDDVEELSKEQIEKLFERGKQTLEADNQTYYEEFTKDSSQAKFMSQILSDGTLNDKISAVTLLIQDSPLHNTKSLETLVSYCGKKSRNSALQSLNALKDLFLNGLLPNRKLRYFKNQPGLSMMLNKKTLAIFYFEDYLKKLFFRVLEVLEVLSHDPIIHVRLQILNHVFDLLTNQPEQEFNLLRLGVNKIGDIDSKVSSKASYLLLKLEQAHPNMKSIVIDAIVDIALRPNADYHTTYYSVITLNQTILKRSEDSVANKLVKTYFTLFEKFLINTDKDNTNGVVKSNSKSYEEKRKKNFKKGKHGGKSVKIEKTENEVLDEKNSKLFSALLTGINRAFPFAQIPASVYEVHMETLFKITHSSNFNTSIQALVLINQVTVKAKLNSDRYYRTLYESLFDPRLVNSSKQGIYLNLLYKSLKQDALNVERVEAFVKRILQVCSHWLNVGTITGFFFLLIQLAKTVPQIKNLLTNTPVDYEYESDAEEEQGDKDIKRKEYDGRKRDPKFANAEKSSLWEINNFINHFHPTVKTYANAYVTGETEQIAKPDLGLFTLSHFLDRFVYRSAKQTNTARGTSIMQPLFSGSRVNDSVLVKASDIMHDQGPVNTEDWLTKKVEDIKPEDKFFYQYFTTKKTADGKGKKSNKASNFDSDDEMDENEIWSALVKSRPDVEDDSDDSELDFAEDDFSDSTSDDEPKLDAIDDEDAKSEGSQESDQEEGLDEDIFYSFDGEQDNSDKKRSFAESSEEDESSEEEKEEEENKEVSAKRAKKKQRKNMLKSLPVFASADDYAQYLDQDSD", "sequence (P39744 whole entry, chain 2 of 2)": "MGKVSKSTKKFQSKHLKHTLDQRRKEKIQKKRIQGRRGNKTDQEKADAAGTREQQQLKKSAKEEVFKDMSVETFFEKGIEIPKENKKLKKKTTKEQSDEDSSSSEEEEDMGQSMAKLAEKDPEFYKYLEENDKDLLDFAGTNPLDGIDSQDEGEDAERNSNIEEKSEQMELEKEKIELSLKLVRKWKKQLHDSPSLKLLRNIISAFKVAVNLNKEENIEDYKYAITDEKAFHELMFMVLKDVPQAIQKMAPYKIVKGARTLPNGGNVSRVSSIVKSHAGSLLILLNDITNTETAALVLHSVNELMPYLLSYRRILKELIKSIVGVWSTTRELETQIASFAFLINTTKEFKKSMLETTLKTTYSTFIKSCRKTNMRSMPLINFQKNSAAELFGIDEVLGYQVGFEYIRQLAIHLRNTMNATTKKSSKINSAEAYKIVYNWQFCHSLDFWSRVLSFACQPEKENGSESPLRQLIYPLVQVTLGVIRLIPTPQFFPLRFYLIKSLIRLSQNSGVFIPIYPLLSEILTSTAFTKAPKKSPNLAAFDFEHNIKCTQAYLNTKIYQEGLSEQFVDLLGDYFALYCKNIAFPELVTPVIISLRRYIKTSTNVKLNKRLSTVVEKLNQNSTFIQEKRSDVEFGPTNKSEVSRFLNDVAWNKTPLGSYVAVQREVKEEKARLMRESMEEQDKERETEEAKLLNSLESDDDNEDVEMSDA", "assay": "pull-down", "data": [{"binder": "Rrp5 full length (natural protein, yeast, UniProt Q05022 1-1729, looked up) MVASTKRKRDEDFPLSREDSTKQPSTSSLVRNTEEVSFPRGGASALTPLELKQVANEAASDVLFGNESVKASEPASRPLKKKKTTKKSTSKDSEASSANSDEARAGLIEHVNFKTLKNGSSLLGQISAITKQDLCITFTDGISGYVNLTHISEEFTSILEDLDEDMDSDTDAADEKKSKVEDAEYESSDDEDEKLDKSNELPNLRRYFHIGQWLRCSVIKNTSLEPSTKKSKKKRIELTIEPSSVNIYADEDLVKSTSIQCAVKSIEDHGATLDVGLPGFTGFIAKKDFGNFEKLLPGAVFLGNITKKSDRSIVVNTDFSDKKNKITQISSIDAIIPGQIVDLLCESITKNGIAGKVFGLVSGVVNVSHLRTFSEEDLKHKFVIGSSIRCRIIACLENKSGDKVLILSNLPHILKLEDALRSTEGLDAFPIGYTFESCSIKGRDSEYLYLALDDDRLGKVHSSRVGEIENSENLSSRVLGYSPVDDIYQLSTDPKYLKLKYLRTNDIPIGELLPSCEITSVSSSGIELKIFNGQFKASVPPLHISDTRLVYPERKFKIGSKVKGRVISVNSRGNVHVTLKKSLVNIEDNELPLVSTYENAKNIKEKNEKTLATIQVFKPNGCIISFFGGLSGFLPNSEISEVFVKRPEEHLRLGQTVIVKLLDVDADRRRIIATCKVSNEQAAQQKDTIENIVPGRTIITVHVIEKTKDSVIVEIPDVGLRGVIYVGHLSDSRIEQNRAQLKKLRIGTELTGLVIDKDTRTRVFNMSLKSSLIKDAKKETLPLTYDDVKDLNKDVPMHAYIKSISDKGLFVAFNGKFIGLVLPSYAVDSRDIDISKAFYINQSVTVYLLRTDDKNQKFLLSLKAPKVKEEKKKVESNIEDPVDSSIKSWDDLSIGSIVKAKIKSVKKNQLNVILAANLHGRVDIAEVFDTYEEITDKKQPLSNYKKDDVIKVKIIGNHDVKSHKFLPITHKISKASVLELSMKPSELKSKEVHTKSLEEINIGQELTGFVNNSSGNHLWLTISPVLKARISLLDLADNDSNFSENIESVFPLGSALQVKVASIDREHGFVNAIGKSHVDINMSTIKVGDELPGRVLKIAEKYVLLDLGNKVTGISFITDALNDFSLTLKEAFEDKINNVIPTTVLSVDEQNKKIELSLRPATAKTRSIKSHEDLKQGEIVDGIVKNVNDKGIFVYLSRKVEAFVPVSKLSDSYLKEWKKFYKPMQYVLGKVVTCDEDSRISLTLRESEINGDLKVLKTYSDIKAGDVFEGTIKSVTDFGVFVKLDNTVNVTGLAHITEIADKKPEDLSALFGVGDRVKAIVLKTNPEKKQISLSLKASHFSKEAELASTTTTTTTVDQLEKEDEDEVMADAGFNDSDSESDIGDQNTEVADRKPETSSDGLSLSAGFDWTASILDQAQEEEESDQDQEDFTENKKHKHKRRKENVVQDKTIDINTRAPESVADFERLLIGNPNSSVVWMNYMAFQLQLSEIEKARELAERALKTINFREEAEKLNIWIAMLNLENTFGTEETLEEVFSRACQYMDSYTIHTKLLGIYEISEKFDKAAELFKATAKKFGGEKVSIWVSWGDFLISHNEEQEARTILGNALKALPKRNHIEVVRKFAQLEFAKGDPERGRSLFEGLVADAPKRIDLWNVYVDQEVKAKDKKKVEDLFERIITKKITRKQAKFFFNKWLQFEESEGDEKTIEYVKAKATEYVASHESQKADE", "values": [{"measurement": "binding result", "result": "binds"}]}]}
